Data reported in the supplement of paper PMC9170038.

System: MS2 coat protein
Assay: apparent KD of MS2 coat protein; designed switch direction (-1 OFF switch, 1 ON switch): -1; higher = weaker reporter binding
How it was run: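 Transcription of designed RNA switches on Illumina chips was done by stalled E. coli RNA polymerase. SNAP-549-labelled MS2 coat protein was then titrated in doubling steps from 0.7 or 1.5 nM to 3 µM, with steps of 0.8–1.5 h at the lowest and 10–20 min at the highest concentration. The per-design median over clusters of curve-fitted normalised fluorescence is reported as apparent KD.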

[1] = input ligand: microRNA oligo, concentration not stated
[2] = Eterna round: R95, input ligand: FMN 200 uM
[3] = Eterna round: R95, input ligand: microRNA oligo, concentration not stated
[4] = Eterna round: R95, input ligand: none

Sequence	apparent KD of MS2 coat protein (input ligand: FMN 200 uM)	apparent KD of MS2 coat protein [1]	apparent KD of MS2 coat protein (input ligand: none)	apparent KD of MS2 coat protein [2]	apparent KD of MS2 coat protein [3]	apparent KD of MS2 coat protein [4]
CUCGUGCAGCAAAGCUGUACGAGUACAUGAGGAUCACCCAUGUAGGAUAUGGUACGCAAAGCGUGCCAGAAGGACGUGAGUUAG [Mat - Exclusion NG 3 - Mod of JL - D95] (Eterna round: R96, puzzle: Exclusion NG 3)	0.171 µM	0.0376 µM	0.059 µM	–	–	–
CUCGUGCAGCAAAGCUGUACGAGUACAUGAGGAUCACCCAUGUAGGAUAUGGUACGCUUUGCGUGCUAGAAGGACGUGUGUAUG [Mat - Exclusion NG 3 - Mod of JL - D90] (Eterna round: R96, puzzle: Exclusion NG 3)	0.0754 µM	0.0269 µM	0.0396 µM	–	–	–
CUCUUGUCAGGAUAUCAACGCCGCCCACACAGGCGGCGAAAUGAGAAGGGACAUGAGGAUCACCCAUGUUAAAA [Tiaonbi] (puzzle: Exclusion 4)	–	–	–	0.0243 µM	0.0861 µM	0.168 µM
CUCUUGUCAGGAUAUCAACGCCGCCCACAUGGGCAGCGAAAUGAGAAGGGACAUGAGGAUCACCCAUGUUAAAA [Retema] (puzzle: Exclusion 4)	–	–	–	0.0304 µM	0.161 µM	0.218 µM
CUCUUGUCAGGAUAUUAUGGACGAAGGCAGGGCCGCGUCAGUGAGAAGGGACAUGAGGAUCACCCAUGUAAAAU [Riintesoa] (puzzle: Exclusion 4)	–	–	–	–	0.0739 µM	–
CUGAACCCGGUAGGAUAUAUUGUGGGCAAGCGUGGAACGACAUGAGGAUCACCCAUGUAAUUUAGGUAGAAGGGCCGAGAGAUU [Excl-NG2-LRO12] (Eterna round: R96, puzzle: Exclusion NG 2)	0.0325 µM	0.0415 µM	0.0415 µM	–	–	–
CUGAGAUCAGGAUAUACAUGAGGAUCACCCAUGUAAAGUAGCUUGCGUACAGGCAGAUGUAGAAGGGAUUUCGG [Mod of JL 5 - Jieux - Exclusion 3] (Eterna round: R97, puzzle: Exclusion 3)	0.0297 µM	–	0.0265 µM	–	–	–
CUGAGCAGACGAAGAUCCAACAUGAGGAUCACCCAUGUCUCAAAAGCUUUUUGCUUGUCUUAUCCUUCCCUGCUCUC [Isbies] (puzzle: Sensor v3, turn-off variant 1)	–	–	–	0.0143 µM	0.207 µM	0.0129 µM
CUGAGCAGACGGAGAUCCAACAUGAGGAUCACCCAUGUCUCAAAAGCUUUUUGCUCGUCUUAUUCUCCUCUGUUCUC [Ainre] (puzzle: Sensor v3, turn-off variant 1)	–	–	–	0.0143 µM	0.0333 µM	0.0125 µM
CUGAGCUGAGGAUAUACAUGAGGAUCACCCAUGUUUUGUAGCUAGUGAAGAAGUAGAUGUAGAAGGCAGUUCGG [Mod of JL 25 - Jieux - Exclusion 3] (Eterna round: R97, puzzle: Exclusion 3)	0.167 µM	–	0.0728 µM	–	–	–
CUGAUGUUAGGAUAUCAGGCGCCCGCCACUGGCAAGGCGCAUGAGAAGGGACAUGAGGAUCACCCAUGUAGUAA [Maquraan] (puzzle: Exclusion 4)	–	–	–	–	0.0215 µM	–
CUGCGUCGUGUUAGGAUAUCCAGCGGUGCGCGCCAGGAGAAGGAACAUGAGGAUCACCCAUGUAAACCGAUGGC [Aratte] (puzzle: Brourd's mod of Exclusion 4)	–	–	–	–	0.011 µM	–
CUGCUCCGUGUAGGAUAUCGCCGCACCACCCGGCGAGAAGGACAUGAGGAUCACCCAUGUAUGUUAUUAUCACGUGUGGCGCGA [Design 41] (Eterna round: R96, puzzle: Exclusion NG 1)	0.0164 µM	0.0139 µM	0.0171 µM	–	–	–
CUGCUGGAGCGUUGCUUUGGUCGUACAUGAGGAUCACCCAUGUAGGAUAUGGUAAAAUUUGCUUGCUAGAAGGAUAGAGUGGUC [salish99_ExNG3_r04_613] (Eterna round: R96, puzzle: Exclusion NG 3)	0.117 µM	0.0635 µM	0.0646 µM	–	–	–
CUGCUGGAGCUUUGCUUUGGUCGUACAUGAGGAUCACCCAUGUAGGAUAUGGUAAGAUUUGCUUGCUAGAAGGAUAGAGUGGUC [salish99_ExNG3_r04_611] (Eterna round: R96, puzzle: Exclusion NG 3)	0.0809 µM	0.0782 µM	0.0497 µM	–	–	–
CUGCUGGAGCUUUGCUUUGGUCGUACAUGAGGAUCACCCAUGUAGGAUAUGGUAGGCUUUGCUUACUAGAAGGAUAGAGUGGUC [salish99_ExNG3_r04_608] (Eterna round: R96, puzzle: Exclusion NG 3)	0.16 µM	0.0764 µM	0.0864 µM	–	–	–
CUGGCUUAGAGAGGAUAUGACAUUCAAGCCUACCCUGGCCACGGGCCACAUGAGGAUCACCCAUGUCAGAAGGCUCAGGCCAGA [Enorri] (Eterna round: R96, puzzle: Exclusion NG 2)	0.0617 µM	0.0255 µM	0.0328 µM	–	–	–
CUGGGCGGAGGAUAUACAGGUUUAAUAUAAAUUAAAUUGGGACAUGAGGAUCACCCAUGUAGAAGGUUGUUUAG [-13.6, -11.8 kcal, 32% A] (Eterna round: R97, puzzle: Exclusion 2)	0.0234 µM	–	0.0221 µM	–	–	–
CUGGUCCGAGGAUAUAUGAUGUGAAACAUGAGGAUCACCCAUGUAAUAUUAUGGAAGUAAAUAGAAGGCGGACUAG [Mat - Exclusion 5 - JL mod - D34] (puzzle: Exclusion 5)	–	–	–	0.0286 µM	0.0495 µM	0.037 µM
CUGGUCCGAGGAUAUAUUAAGUGAAACAUGAGGAUCACCCAUGUUAUUUAAUGGAUGUAAAUAGAAGGCGGACUAG [JL-ex5-3.12] (puzzle: Exclusion 5)	–	–	–	0.0299 µM	0.037 µM	0.0428 µM
CUGGUCCGAGGAUAUAUUAAGUGAAACAUGAGGAUCACCCAUGUUAUUUGAUGGAAGAAAAUAGAAGGCGGACUAG [Mat - Exclusion 5 - JL mod - D59] (puzzle: Exclusion 5)	–	–	–	0.0299 µM	0.0869 µM	0.0625 µM
CUGUACUGAGGAUAUACAUGAGGAUCACCCAUGUGAUGUAGUGCACGCGUACGUGUACGUAGAAGGCAGUACAG [Mat - Exclusion 3 - Eli Mod - D41] (Eterna round: R97, puzzle: Exclusion 3)	0.054 µM	–	0.0203 µM	–	–	–
